# Values of other authors, collected in paper PMC11003968, “Identification of small molecules affecting the interaction between human hemoglobin and Staphylococcus aureus IsdB hemophore” (Scientific Reports, 2024).
# pKd: −log10 of the molar value.
# Key:
# [1] = biological target: IsdB (Staphylococcus aureus) (UniProt A7X146); experiment: SPR
# [2] = biological target: oxyhemoglobin dimer (Homo sapiens) (UniProt P69905)
# Chain of IsdB (Staphylococcus aureus) (A7X146 41-613): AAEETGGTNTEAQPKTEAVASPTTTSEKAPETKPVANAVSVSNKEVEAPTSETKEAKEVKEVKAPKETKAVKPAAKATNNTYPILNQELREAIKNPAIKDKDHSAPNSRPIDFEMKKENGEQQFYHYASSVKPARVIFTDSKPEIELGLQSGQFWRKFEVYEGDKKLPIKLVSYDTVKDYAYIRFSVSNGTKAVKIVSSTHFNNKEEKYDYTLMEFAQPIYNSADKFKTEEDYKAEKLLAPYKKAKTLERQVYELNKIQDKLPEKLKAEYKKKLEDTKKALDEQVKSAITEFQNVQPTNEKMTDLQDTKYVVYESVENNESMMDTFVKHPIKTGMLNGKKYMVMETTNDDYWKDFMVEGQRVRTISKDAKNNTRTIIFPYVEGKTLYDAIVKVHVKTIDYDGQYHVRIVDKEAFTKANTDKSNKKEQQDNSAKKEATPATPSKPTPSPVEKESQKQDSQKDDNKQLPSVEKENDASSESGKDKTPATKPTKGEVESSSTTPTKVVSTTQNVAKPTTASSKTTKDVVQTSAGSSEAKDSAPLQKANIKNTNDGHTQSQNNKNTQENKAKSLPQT
# Chain of hemoglobin (P69905 2-142): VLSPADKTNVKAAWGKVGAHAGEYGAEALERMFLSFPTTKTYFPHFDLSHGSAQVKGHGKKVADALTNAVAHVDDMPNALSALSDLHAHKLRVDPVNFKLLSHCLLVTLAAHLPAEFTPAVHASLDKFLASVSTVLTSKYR
# Chain of hemoglobin (P68871 2-147, further chain): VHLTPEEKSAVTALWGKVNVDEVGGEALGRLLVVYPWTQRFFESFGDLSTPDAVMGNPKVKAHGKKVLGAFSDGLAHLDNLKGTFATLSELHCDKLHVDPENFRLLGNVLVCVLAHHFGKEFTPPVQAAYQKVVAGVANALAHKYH
# Chain of oxyhemoglobin dimer (P69905 2-142): as the sequence (P69905 2-142) above
# Chain of oxyhemoglobin dimer (P68871 2-147, further chain): as the sequence (P68871 2-147, further chain) above
pKd [2],Substance,pKd [1]
,hemoglobin (from UniProt P69905),7.46
6.60,oxyhemoglobin dimer (from UniProt P69905),
